According to patent US20210300992A1 (Stanford University, published 2021):
Residue numbers refer to the chain shown, from its start. In names and notes the source's numbering stands. Values belong to the binder of their own block, whether it stands above or below them.

Tests used:
[1] = molecular target: T1, human leukemia inhibitory factor (LIF), soluble (human, UniProt P15018 23-202); assay: KinExA with soluble human LIF; inhibitor titrated
T1 construct: also called human LIF; soluble human LIF
Method: (§1) Binding of the purified LIF inhibitors to soluble LIF was tested using KinExA. Shown in FIG. 10 are binding results for: (1) a homodimer having a WT LIFR CBMI-Ig-like-CBMII Fc fusion as each monomer; (2) a homodimer having LIFR […] Fc as each monomer;

[2] = molecular target: T1, human leukemia inhibitory factor (LIF), …; assay: KinExA with soluble human LIF; KD calculated by the KinExA software. The unit is written as printed; the curve lies beside that of LIFR VPRVVAID Fc (Kd in pM)
Method: as §1
(§2) and (3) a homodimer having LIFR-gp130 V-E fusion Fc as each monomer. KD values calculated from KinExA software and fitted curves are shown.

[3] = molecular target: T2, wild-type human gp130 CBM domain displayed on the surface of yeast (human, UniProt P40189 124-324); assay: yeast-displayed receptor, no LIF added, anti-Fc detection by flow cytometry
T2 construct: also called gp130 wild-type (WT); wild-type gp130
T2 chain: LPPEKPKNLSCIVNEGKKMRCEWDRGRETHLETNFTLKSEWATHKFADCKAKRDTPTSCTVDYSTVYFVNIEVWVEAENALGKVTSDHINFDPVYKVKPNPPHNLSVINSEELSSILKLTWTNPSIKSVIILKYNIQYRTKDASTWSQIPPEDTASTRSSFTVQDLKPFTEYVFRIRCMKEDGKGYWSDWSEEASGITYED

[4] = molecular target: T3, wild-type human LIFR displayed on the surface of yeast (human, UniProt P42702 45-534, limits assumed); assay: as above
T3 construct: also called LIFR wild-type (WT); wild-type LIFR
T3 sequence: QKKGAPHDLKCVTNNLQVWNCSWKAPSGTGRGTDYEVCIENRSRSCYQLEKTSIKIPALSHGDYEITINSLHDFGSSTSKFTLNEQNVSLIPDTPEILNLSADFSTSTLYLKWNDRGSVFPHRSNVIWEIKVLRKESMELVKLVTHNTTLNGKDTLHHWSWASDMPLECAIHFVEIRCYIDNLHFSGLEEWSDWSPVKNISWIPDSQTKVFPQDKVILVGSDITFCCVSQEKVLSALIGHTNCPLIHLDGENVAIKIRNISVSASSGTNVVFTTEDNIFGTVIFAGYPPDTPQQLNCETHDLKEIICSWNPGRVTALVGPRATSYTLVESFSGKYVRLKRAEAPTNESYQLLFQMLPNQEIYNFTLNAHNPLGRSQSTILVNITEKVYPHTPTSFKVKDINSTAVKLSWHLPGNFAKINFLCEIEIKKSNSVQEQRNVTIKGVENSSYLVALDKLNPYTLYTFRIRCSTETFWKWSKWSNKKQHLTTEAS

[5] = molecular target: T4, human LIF-His (human, UniProt P15018 23-202); assay: competition on yeast: displayed wild-type LIFR or gp130 saturated with LIF-His, inhibitor added in excess; anti-His signal normalized to LIF alone
T4 construct: also called soluble LIF-His; not shown: His6 tag
Method: FIG. 14 LIF inhibitors compete LIF away from wild-type receptors. Panel A: Schematic illustration of competitive binding assay. […] Human LIF-His is incubated at saturating concentrations. Inhibitors (LIFR-[…]-Fc depicted) are then co-incubated with LIF-bound yeast, in excess. LIF binding is detected via His6-tag on LIF. The less LIF that remains bound after inhibitor incubation, the better the inhibitor is able to compete LIF away from the WT receptor. Panel B: Results from competitive binding experiment. […] Fraction bound is the fluorescent emission detected from the LIF-His, normalized to No Inhibitor added. Competitive binding of LIFR-WT-Fc, gp130-ELDME-Fc (Eng.), LIFR-[…]-Fc (Eng.), LIFR-gp130 Fusion-Fc (Eng.), LIFR-gp130 Heterodimeric Fc (Eng.), Anti-LIF mAb L1, and Anti-LIF mAb G1 are shown.
Human LIF-His is introduced at saturating concentrations. Inhibitors (LIFR-[…]-Fc depicted) are then co-incubated with LIF-bound yeast, in excess. LIF binding is detected via His6-tag on LIF. The less LIF that remains bound after inhibitor incubation, the better the inhibitor is able to compete LIF away from the WT receptor.

[6] = molecular target: T1, human leukemia inhibitory factor (LIF), …; assay: yeast surface display titration with human LIF, flow cytometry
Method: (§3) Binding to human LIF was measured via fluorescent antibody detection using flow cytometry.

[7] = molecular target: T1, human leukemia inhibitory factor (LIF), …; assay: yeast surface display titration with human LIF, flow cytometry; reference yeast-displayed gp130 WT
Method: as §3
Results for gp130 wild-type (WT) (circles), the “8M” variant (E4K-K5R-N14D-K45E-F46L-K83R-Y95D-N100S) (squares), and the ELDME variant (mutations in FIG. 4, panel A) (triangles) are shown.

[8] = molecular target: T1, human leukemia inhibitory factor (LIF), …; assay: KinExA with soluble human LIF; KD calculated by the KinExA software
Method: as §1

[9] = molecular target: T1, human leukemia inhibitory factor (LIF), …; assay: cell-based or functional assay
[10] = molecular target: T1, human leukemia inhibitory factor (LIF), …; assay: KinExA, purified Fc fusion with soluble human LIF
[11] = molecular target: T1, human leukemia inhibitory factor (LIF), …; assay: KinExA, purified Fc fusion with soluble human LIF; reference LIFR-WT-Fc
Method: as §1, §2

[12] = molecular target: T1, human leukemia inhibitory factor (LIF), …; assay: yeast surface display titration with human LIF, flow cytometry; reference yeast-displayed LIFR WT
Method: as §3
Results for LIFR wild-type (WT) (circles), the “PDD” variant (L218P-N42D-N277D) (squares), and the […] variant (mutations in FIG. 4, panel A) (triangles) are shown.

EC50 (read off the curve) [1]: ~0.06 nM
Kd [2]: 30.8 nM
binding result [3]: no binding
binding result [4]: no binding
B1: LIFR CBMI-Ig-like-CBMII (VPRVVAID)-gp130 CBM (ELDME) Fc fusion homodimer (Fc fusion)
chain: QKKGAPHDLKCVTNNLQVWNCSWKAPSGTGRGTDYEVCIENRSRSCYQLEKTSIKIPALSHGDYEITINSLHDFGSSTSKFTLNEQNVSLIPDTPEILNLSADFSTSTLYLKWNDRGSVFPHRSNVIWEIKVLRKESMELVKLVTHNTTLNGKDTLHHWSWASDMPLECAIHFVEIRCYIDNLHFSGLEEWSDWSPVKNISWIPDSQTKVFPQDKVVPVGSDITFCCVSQEKVLSALIGRTNCPLIHLDGENVAIKVRNVSASASSGTNVVFITEDDIFGTVIFAGYPPDTPQQLNCETHDLKEIICSWNPGRVTALVGPRATSYTLVESFSGKYVRLKRAEAPTNESYQLLFQMLPNQEIYNFTLNAHNPLGRSQSTILVNITEKVYPHTPTSFKVKDINSTAVKLSWHLPGNFAKINFLCEIEIKKSNSVQEQRNVTIKGVENSSYLVALDKLNPYTLYTFRIRCSTETFWKWSKWSNKKQHLTTEASGGGGSGGGGSGGGGSGGGGSGGGGSLPPEKPKNLSCIVNEGKKMRCEWDRGRETHLETNFTLKSEWATHELADCKAKRDTPTSCTVDYSTVYFVNIEVWVEAENALGKVTSDHINFDPVDKVKPNPPHNLSVINSEELSSILKLTWTNPSIKSVMILKYNIQYRTKDASTWSQIPPEDTASTRSSFTVQDLKPFTEYVFRIRCMKEDGEGYWSDWSEEASGITYEDGSGSGSDKTHTCPPCPAPELLGGPSVFLFPPKPKDTLMISRTPEVTCVVVDVSHEDPQVKFNWYVDGVQVHNAKTKPREQQYNSTYRVVSVLTVLHQNWLDGKEYKCKVSNKALPAPIEKTISKAKGQPREPQVYTLPPSREEMTKNQVSLTCLVKGFYPSDIAVEWESNGQPENNYKTTPPVLDSDGSFFLYSKLTVDKSRWQQGNVFSCSVMHEALHNHYTQKSLSLSPGK
notes: also called LIFR-gp130 Fusion-Fc; LIFR-gp130 V-E fusion Fc

binding result [5]: binds
binding result [3]: no binding
binding result [4]: no binding
B2: gp130 CBM domain (ELDME) Fc fusion homodimer (Fc fusion)
chain: LPPEKPKNLSCIVNEGKKMRCEWDRGRETHLETNFTLKSEWATHELADCKAKRDTPTSCTVDYSTVYFVNIEVWVEAENALGKVTSDHINFDPVDKVKPNPPHNLSVINSEELSSILKLTWTNPSIKSVMILKYNIQYRTKDASTWSQIPPEDTASTRSSFTVQDLKPFTEYVFRIRCMKEDGEGYWSDWSEEASGITYEDGSGSGSDKTHTCPPCPAPELLGGPSVFLFPPKPKDTLMISRTPEVTCVVVDVSHEDPQVKFNWYVDGVQVHNAKTKPREQQYNSTYRVVSVLTVLHQNWLDGKEYKCKVSNKALPAPIEKTISKAKGQPREPQVYTLPPSREEMTKNQVSLTCLVKGFYPSDIAVEWESNGQPENNYKTTPPVLDSDGSFFLYSKLTVDKSRWQQGNVFSCSVMHEALHNHYTQKSLSLSPGK
notes: also called gp130-ELDME-Fc; gp130 ELDME Fc

Kd [6]: 5 nM
fold higher affinity compared to wild-type (WT) [7]: 12 fold
B3: gp130 ELDME variant displayed on the surface of yeast (receptor)
chain: T2 chain with K45E, F46L, Y95D, I130M, K184E
notes: also called K45E-F46L-Y95D-I130M-K184E

EC50 (read off the curve) [1]: ~0.05 nM
Kd [8]: 0.0231 nM
IC50, inhibition of LIF derived luciferase activity in HeLa STAT3 luciferase reporter cells [9]: 0.035 nM
fold improvement in IC50 over LIFR WT Fc, inhibition of LIF derived luciferase activity in HeLa reporter cells [9]: 53 fold
Kd [10]: 0.023 nM
fold improvement in affinity over LIFR-WT-Fc [11]: 43 fold
binding result [3]: no binding
binding result [4]: no binding
B4: LIFR CBMI-Ig-like-CBMII (VPRVVAID) Fc fusion homodimer (Fc fusion)
chain: QKKGAPHDLKCVTNNLQVWNCSWKAPSGTGRGTDYEVCIENRSRSCYQLEKTSIKIPALSHGDYEITINSLHDFGSSTSKFTLNEQNVSLIPDTPEILNLSADFSTSTLYLKWNDRGSVFPHRSNVIWEIKVLRKESMELVKLVTHNTTLNGKDTLHHWSWASDMPLECAIHFVEIRCYIDNLHFSGLEEWSDWSPVKNISWIPDSQTKVFPQDKVVPVGSDITFCCVSQEKVLSALIGRTDCPLIHLDGENVAIKVRNVSASASSGTNVVFITEDDIFGTVIFAGYPPDTPQGSQLNCETHDLKEIICSWNPGRVTALVGPRATSYTLVESFSGKYVRLKRAEAPTNESYQLLFQMLPNQEIYNFTLNAHNPLGRSQSTILVNITEKVYPHTPTSFKVKDINSTAVKLSWHLPGNFAKINFLCEIEIKKSNSVQEQRNVTIKGVENSSYLVALDKLNPYTLYTFRIRCSTETFWKWSKWSNKKQHLTTEASGSGSGSDKTHTCPPCPAPELLGGPSVFLFPPKPKDTLMISRTPEVTCVVVDVSHEDPQVKFNWYVDGVQVHNAKTKPREQQYNSTYRVVSVLTVLHQNWLDGKEYKCKVSNKALPAPIEKTISKAKGQPREPQVYTLPPSREEMTKNQVSLTCLVKGFYPSDIAVEWESNGQPENNYKTTPPVLDSDGSFFLYSKLTVDKSRWQQGNVFSCSVMHEALHNHYTQKSLSLSPGK

Kd [6]: 0.03 nM
fold higher affinity compared to wild-type (WT) [12]: 32 fold
B5: LIFR VPRVVAID variant displayed on the surface of yeast (receptor)
chain: T3 sequence with I217V, L218P, H240R, I257V, I260V, V262A, T273I, N277D
notes: also called I217V-L218P-H240R-I257V-I206V-V262A-T2711-N277D
